Measured values reported in US20150337051A1 (MORPHOTEK, published 2015).

Columns and labels:
[1] = molecular target: T1, recombinant CHO TEM-1 Fc fusion protein (UniProt Q9HCU0); assay: ECL sandwich, competition: biotin-9G5 capture, sulfo-TAG-15F8 detection; MORAb-004 spike 25 µg/mL, TEM-1-Fc QC 2 ng/mL; recovery at 0 µg/mL MORAb-004: 106
T1 sequence (looked up): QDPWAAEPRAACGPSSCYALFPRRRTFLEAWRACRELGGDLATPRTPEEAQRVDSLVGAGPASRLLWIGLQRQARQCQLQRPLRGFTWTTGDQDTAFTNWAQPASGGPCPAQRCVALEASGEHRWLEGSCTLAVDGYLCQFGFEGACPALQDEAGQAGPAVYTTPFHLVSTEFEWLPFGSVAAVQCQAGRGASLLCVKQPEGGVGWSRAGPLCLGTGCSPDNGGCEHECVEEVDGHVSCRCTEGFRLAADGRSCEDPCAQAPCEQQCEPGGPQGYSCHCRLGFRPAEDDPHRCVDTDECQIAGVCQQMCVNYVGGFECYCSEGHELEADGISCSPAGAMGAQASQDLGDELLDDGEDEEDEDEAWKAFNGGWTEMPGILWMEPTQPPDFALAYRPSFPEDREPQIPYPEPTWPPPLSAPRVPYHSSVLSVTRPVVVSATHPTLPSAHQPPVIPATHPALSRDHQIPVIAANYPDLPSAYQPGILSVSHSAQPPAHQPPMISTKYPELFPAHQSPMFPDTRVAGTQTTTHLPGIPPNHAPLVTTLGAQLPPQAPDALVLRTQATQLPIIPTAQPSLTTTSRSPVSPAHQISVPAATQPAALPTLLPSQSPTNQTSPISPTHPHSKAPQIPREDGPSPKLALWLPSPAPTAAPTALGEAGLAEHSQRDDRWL

[2] = molecular target: T1, recombinant CHO TEM-1 Fc fusion protein; assay: ECL sandwich, competition: biotin-9G5 capture, sulfo-TAG-15F8 detection; MORAb-004 spike 50 µg/mL, TEM-1-Fc QC 2 ng/mL; recovery at 0 µg/mL MORAb-004: 106
[3] = molecular target: T1, recombinant CHO TEM-1 Fc fusion protein; assay: ECL sandwich, competition: biotin-9G5 capture, sulfo-TAG-15F8 detection; MORAb-004 spike 25 µg/mL, TEM-1-Fc QC 50 ng/mL; recovery at 0 µg/mL MORAb-004: 104
[4] = molecular target: T1, recombinant CHO TEM-1 Fc fusion protein; assay: ECL sandwich, competition: biotin-9G5 capture, sulfo-TAG-15F8 detection; MORAb-004 spike 12.5 µg/mL, TEM-1-Fc QC 2 ng/mL; recovery at 0 µg/mL MORAb-004: 106
[5] = molecular target: T1, recombinant CHO TEM-1 Fc fusion protein; assay: ECL sandwich, competition: biotin-9G5 capture, sulfo-TAG-15F8 detection; MORAb-004 spike 6.25 µg/mL, TEM-1-Fc QC 2 ng/mL; recovery at 0 µg/mL MORAb-004: 106
[6] = molecular target: T1, recombinant CHO TEM-1 Fc fusion protein; assay: ECL sandwich, competition: biotin-9G5 capture, sulfo-TAG-15F8 detection; MORAb-004 spike 12.5 µg/mL, TEM-1-Fc QC 50 ng/mL; recovery at 0 µg/mL MORAb-004: 104
[7] = molecular target: T1, recombinant CHO TEM-1 Fc fusion protein; assay: ECL sandwich, competition: biotin-9G5 capture, sulfo-TAG-15F8 detection; MORAb-004 spike 6.25 µg/mL, TEM-1-Fc QC 10 ng/mL; recovery at 0 µg/mL MORAb-004: 105
[8] = molecular target: T1, recombinant CHO TEM-1 Fc fusion protein; assay: ECL sandwich, competition: biotin-9G5 capture, sulfo-TAG-15F8 detection; MORAb-004 spike 3.125 µg/mL, TEM-1-Fc QC 10 ng/mL; recovery at 0 µg/mL MORAb-004: 105
[9] = molecular target: T1, recombinant CHO TEM-1 Fc fusion protein; assay: ECL sandwich, competition: biotin-9G5 capture, sulfo-TAG-15F8 detection; MORAb-004 spike 1.5625 µg/mL, TEM-1-Fc QC 10 ng/mL; recovery at 0 µg/mL MORAb-004: 105
[10] = molecular target: T1, recombinant CHO TEM-1 Fc fusion protein; assay: ECL sandwich, competition: biotin-9G5 capture, sulfo-TAG-15F8 detection; MORAb-004 spike 12.5 µg/mL, TEM-1-Fc QC 0.08 ng/mL; recovery at 0 µg/mL MORAb-004: 114
[11] = molecular target: T1, recombinant CHO TEM-1 Fc fusion protein; assay: ECL sandwich, competition: biotin-9G5 capture, sulfo-TAG-15F8 detection; MORAb-004 spike 6.25 µg/mL, TEM-1-Fc QC 0.08 ng/mL; recovery at 0 µg/mL MORAb-004: 114
[12] = molecular target: T1, recombinant CHO TEM-1 Fc fusion protein; assay: ECL sandwich, competition: biotin-9G5 capture, sulfo-TAG-15F8 detection; MORAb-004 spike 0.78125 µg/mL, TEM-1-Fc QC 10 ng/mL; recovery at 0 µg/mL MORAb-004: 105
[13] = molecular target: T1, recombinant CHO TEM-1 Fc fusion protein; assay: ECL sandwich, competition: biotin-9G5 capture, sulfo-TAG-15F8 detection; MORAb-004 spike 0.78125 µg/mL, TEM-1-Fc QC 50 ng/mL; recovery at 0 µg/mL MORAb-004: 104
[14] = molecular target: T1, recombinant CHO TEM-1 Fc fusion protein; assay: ECL sandwich, competition: biotin-9G5 capture, sulfo-TAG-15F8 detection; MORAb-004 spike 3.125 µg/mL, TEM-1-Fc QC 0.08 ng/mL; recovery at 0 µg/mL MORAb-004: 114
[15] = molecular target: T1, recombinant CHO TEM-1 Fc fusion protein; assay: ECL sandwich, competition: biotin-9G5 capture, sulfo-TAG-15F8 detection; MORAb-004 spike 1.5625 µg/mL, TEM-1-Fc QC 0.08 ng/mL; recovery at 0 µg/mL MORAb-004: 114

% Recovery of TEM-1 QCs spiked with MORAb-004 [1]: 89.1%
% Recovery of TEM-1 QCs spiked with MORAb-004 [2]: 89.9%
% Recovery of TEM-1 QCs spiked with MORAb-004 [3]: 92.8%
% Recovery of TEM-1 QCs spiked with MORAb-004 [4]: 92.8%
% Recovery of TEM-1 QCs spiked with MORAb-004 [5]: 94.2%
% Recovery of TEM-1 QCs spiked with MORAb-004 [6]: 92.1%
% Recovery of TEM-1 QCs spiked with MORAb-004 [7]: 94.4%
% Recovery of TEM-1 QCs spiked with MORAb-004 [8]: 95.8%
% Recovery of TEM-1 QCs spiked with MORAb-004 [9]: 97.7%
% Recovery of TEM-1 QCs spiked with MORAb-004 [10]: 99.4%
% Recovery of TEM-1 QCs spiked with MORAb-004 [11]: 101%
% Recovery of TEM-1 QCs spiked with MORAb-004 [12]: 100%
% Recovery of TEM-1 QCs spiked with MORAb-004 [13]: 99.3%
% Recovery of TEM-1 QCs spiked with MORAb-004 [14]: 103%
% Recovery of TEM-1 QCs spiked with MORAb-004 [15]: 103%
B1: MORAb-004 (antibody, INN chains, looked up, V domains shown)
VH: QVQLQESGPGLVRPSQTLSLTCTASGYTFTDYVIHWVKQPPGRGLEWIGYINPYDDDTTYNQKFKGRVTMLVDTSSNTAYLRLSSVTAEDTAVYYCARRGNSYDGYFDYSMDYWGSGTPVTVSS
VL: DIQMTQSPSSLSASVGDRVTITCRASQNVGTAVAWLQQTPGKAPKLLIYSASNRYTGVPSRFSGSGSGTDYTFTISSLQPEDIATYYCQQYTNYPMYTFGQGTKVQIK
